Data set [1] relates to CC(=O)N[C@H]1[C@H]([C@H](O)[C@H](O)CO)O[C@@](O[C@H]2[C@@H](O)[C@@H](CO)O[C@@H](O[C@H]3[C@H](O)[C@@H](O)[C@H](Oc4ccc5c(C)cc(=O)oc5c4)O[C@@H]3CO)[C@@H]2O)(C(=O)O)C[C@@H]1O. Nature of the data set: α2-3-sialidase activity, Neu5Acα2-3LacβMU as substrate. The format is biochemical, Pasteurella multocida. Particulars: other: apparent, MES pH 5.5, 37° C. The method, then:
(§1) Site-directed mutagenesis, expression and purification of PmST1 mutants. Site-directed mutagenesis was performed using the QuikChange multi-site-directed mutagenesis kit from Stratagene according to the manufacturer's protocol. The primers used were 5′-[…]-3′ (SEQ ID NO:35) for M144D; 5′-[…]a[…] -3′ (SEQ ID NO:36) for M144H; 5′-[…]-3′ (SEQ ID NO:37) for A35D; and 5′-[…]-3′ (SEQ ID NO:38) for A35H. The expression and purification of the mutants were performed as previously described for the WT PmST1 .
Kinetics of the α2-3-sialidase activity of PmST1 mutants. The reactions were performed in duplicate in a total volume of 10 μL at 37° C. for 60 min (M144D) or 15 min (M144H) in MES buffer (100 mM, pH 5.5) containing Neu5Acα2-3LacβMU (0.4, 1, 2, 4, 10, 20, 40 and 60 mM) and an enzyme (M144H, 1.36 mg mL^−1 or M144D, 1.05 mg mL^−1). Sample treatment after the reaction and analysis were carried out by HPLC similar to that described above for the α2-3-sialyltransferase assays.

Data set [2] deals with CC(=O)N[C@H]1[C@H]([C@H](O)[C@H](O)CO)O[C@](OP(=O)(O)OC[C@H]2O[C@@H](n3ccc(N)nc3=O)[C@H](O)[C@@H]2O)(C(=O)O)C[C@@H]1O. Nature of the data set: α2-3-sialyltransferase activity, LacβMU as acceptor. The format is biochemical, Pasteurella multocida. Particulars: other: apparent, donor, LacβMU 1 mM, Tris-HCl pH 8.5, 37° C. As to the method:
as §1
(§2) Kinetics of the α2-3-sialyltransferase activity of PmST1 mutants by HPLC analysis. With LacβMU as the acceptor substrate, the reactions were performed in duplicate at 37° C. for 10 min (M144D) or 4 min (M144H) in a reaction mixture (10 μL) containing Tris-HCl (100 mM, pH 8.5), an enzyme (5 μg mL^−1), and different concentrations (0.2, 0.5, 1.0, 2.0, and 5.0 mM) of LacβMU with a fixed concentration (1 mM) of CMP-Neu5Ac or different concentrations (0.2, 0.5, 1.0, 2.0, 5.0, and 10.0 mM) of CMP-Neu5Ac with a fixed concentration (1 mM) of LacβMU. With Le^xβMU as the acceptor substrate, the reactions were carried out in duplicate at 37° C. for 9 min (M144D) or 10 min (M144H) in a reaction mixture (10 μL) containing CAPSO (100 mM, pH 9.5), an enzyme (M144D, 39 μg mL^−1 or M144H, 5 μg mL^−), and various concentrations of Le^xβMU (1.0, 5.0, 10.0, 15.0, 25.0, and 35.0 mM) with a fixed concentration (1 mM) of CMP-Neu5Ac or various concentrations (0.2, 0.5, 1.0, 2.0, 5.0, 10.0, 20.0, and 40.0 mM) of CMP-Neu5Ac with a fixed concentration (1 mM) of Le^xβMU. Reactions were stopped by adding 10 μL of pre-chilled ethanol. The mixtures were incubated on ice for 30 min and centrifuged at 13,000 rpm for 5 min. The supernatants were diluted with 25% acetonitrile and kept on ice until aliquots of 8 μL were injected and analyzed by the Shimadzu LC-6AD system equipped with a membrane on-line degasser, a temperature control unit, and a fluorescence detector (Shimadzu RF-10AXL). A reverse-phase Premier C18 column (250×4.6 mm i.d., 5 μm particle size, Shimadzu) protected with a C18 guard column cartridge was used. The mobile phase was 25% acetonitrile. The fluorophore (MU)-labeled compounds were detected by excitation at 325 nm and emission at 372 nm. The apparent kinetic parameters were obtained by fitting the experimental data (the average values of duplicate assay results) into the Michaelis-Menten equation using Grafit 5.0.

In data set [3] the test system is Cc1cc(=O)oc2cc(O[C@@H]3O[C@H](CO)[C@@H](O[C@@H]4O[C@H](CO)[C@H](O)[C@H](O)[C@H]4O)[C@H](O)[C@H]3O)ccc12. Described as above. The format is biochemical, Pasteurella multocida. Particulars: other: apparent, acceptor, CMP-Neu5Ac 1 mM, Tris-HCl pH 8.5, 37° C. The method, then: as §1, §2
Data set [4] has as its system CC(=O)N[C@H]1[C@H](Oc2ccc3c(C)cc(=O)oc3c2)O[C@H](CO)[C@@H](O[C@@H]2O[C@H](CO)[C@H](O)[C@H](O)[C@H]2O)[C@@H]1O[C@@H]1O[C@@H](C)[C@@H](O)[C@@H](O)[C@@H]1O. Kind of data set: α2-3-sialyltransferase activity, Le^xβMU as acceptor. Particulars: other: apparent, acceptor, CMP-Neu5Ac 1 mM, CAPSO pH 9.5, 37° C. In kind it is biochemical, Pasteurella multocida. The method, then:
as §1, §2

Data set [5] deals with CC(=O)N[C@H]1[C@H]([C@H](O)[C@H](O)CO)O[C@](OP(=O)(O)OC[C@H]2O[C@@H](n3ccc(N)nc3=O)[C@H](O)[C@@H]2O)(C(=O)O)C[C@@H]1O. The description is as above. The format is biochemical, Pasteurella multocida. Particulars: other: apparent, donor, Le^xβMU 1 mM, CAPSO pH 9.5, 37° C. As to the method:
as §1, §2

Data set [6] has the same test system. Kind of data set: CMP-Neu5Ac (donor) hydrolysis activity, capillary electrophoresis. The format is biochemical, Pasteurella multocida. Particulars: other: apparent, Tris-HCl pH 8.5, 37° C., 15 min. The method, then:
as §1
Kinetics of the donor hydrolysis activity of PmST1 and mutants by capillary electrophoresis analysis. […] The reactions were stopped by adding 10 μL of pre-chilled ethanol. The mixtures were incubated on ice for 30 min and centrifuged at 13,000 rpm for 5 min. The supernatants were diluted with borate buffer (25 mM, pH 9.5) and aliquotes of 5 μL each were injected to a Beckman Coulter P/ACE™ MDQ Capillary Electrophoresis system equipped with a capillary (60 cm×75 μm i.d.) and monitored at 254 nm. The apparent kinetic parameters were obtained by fitting the experimental data (the average values of duplicate assay results) into the Michaelis-Menten equation using Grafit 5.0.

The subject of data set [7] is CC(=O)N[C@H]1[C@H](Oc2ccc3c(C)cc(=O)oc3c2)O[C@H](CO)[C@@H](O[C@@H]2O[C@H](CO)[C@H](O)[C@H](O)[C@H]2O)[C@@H]1O[C@@H]1O[C@@H](C)[C@@H](O)[C@@H](O)[C@@H]1O. Nature of the data set: purified protein, by the assay type. Particulars: other: apparent; acceptor; WT; 37.0 °C.
Data set [8] concerns CC(=O)N[C@H]1[C@H]([C@H](O)[C@H](O)CO)O[C@](OP(=O)(O)OC[C@H]2O[C@@H](n3ccc(N)nc3=O)[C@H](O)[C@@H]2O)(C(=O)O)C[C@@H]1O. Kind of data set: purified protein, by the assay type. Particulars: other: apparent, WT.
Data set [9] can be described thus: Apparent kinetics of the α2-3-sialidase activity (HPLC, fluorescent sialoside substrate). The format is biochemical. Particulars: substrate Neu5Acα2-3LacβMU. As to the method:
All the sialidase and α2-3-sialyltransferase assays were performed in an HPLC system. Reactions were stopped by adding 10 μL of ethanol. […] The mobile phase was 25% acetonitrile.
Kinetics of the α2-3-sialidase activity of PmST1 mutants.

Data set [10] in a line: Thermal stability studies by HPLC. Particulars: incubating at 37° C. for up to 2 hours. In kind it is physicochemical. The method, then:
Stability studies by HPLC. Thermal stability studies were carried out by incubating wild-type PmST1 or E271F/R313Y mutant solution (20 μg mL^−1) at 37° C. Samples were withdrawn at various time intervals for enzyme activity assays.

[11] abbreviates: donor hydrolysis, Tris-HCl pH 8.5, 37° C., 15 min.

Usually Km stands for the substrate concentration at which the rate is half of its maximum. As usually defined, the kcat is the maximal rate divided by the concentration of active sites. Broadly, the kcat/Km is the turnover number divided by the Michaelis constant.

For the molecule “Pasteurella multocida PmST1 mutant M144H of SEQ ID NO: 13 (M120H of Δ24PmST1, SEQ ID NO: 5) (Pasteurella multocida; M144H)”, the Km in data set [1] (M144H, 15 min) is reported as 1.7 ± 0.3 mM; in data set [2] (M144H) it was 0.81 ± 0.06 mM; in data set [3] (M144H), 0.79 ± 0.04 mM; in data set [4] (M144H), 8.1 ± 0.9 mM; in [5] (M144H), 0.4 ± 0.05 mM; in data set [6] (M144H) it was 13 ± 3 mM.
Turning to “Pasteurella multocida α2-3-sialyltransferase 1 (PmST1), wild type (WT), SEQ ID NO: 13 (Pasteurella multocida)”, in [7], the Km is given as 17 ± 2 mM and the kcat worked out at 6.7 ± 0.3 s⁻¹. Also, in data set [8] (setting [11]), the Km came to 1.5 ± 0.2 mM, the kcat stood at 27 ± 1 s⁻¹ and the kcat/Km came out at 18000 M⁻¹ s⁻¹. In addition, in data set [8] (donor, with Le^xβMU, 37.0 °C), the Km came out at 0.39 ± 0.03 mM and the kcat came to 0.55 ± 0.01 s⁻¹.
In the case of “Pasteurella multocida PmST1 mutant M144D of SEQ ID NO: 13 (M120D of Δ24PmST1, SEQ ID NO: 3) (Pasteurella multocida; M144D)”, the Km in data set [1] (M144D, 60 min) is given as 20 ± 2 mM; in data set [2] (M144D), 0.30 ± 0.05 mM; in data set [3] (M144D), 12 ± 1 mM; in data set [4] (M144D), 13 ± 2 mM; in data set [5] (M144D) it was 2.1 ± 0.1 mM; in data set [6] (M144D), 7.3 ± 0.5 mM.

B1: E271F/R313Y (protein, listed as Pasteurella multocida)
chain: MKNRRLNFKLFFLIIFSLFSTLSWSKTITLYLDPASLPALNQLMDFTQNNEDKTHPRIFGLSRFKIPDNIITQYQNIHFVELKDNRPTEALFTILDQYPGNIELNIHLNIAHSVQLIRPILAYRFKHLDRVSIQQLNLYDDGSMEYVDLEKEENKDISAEIKQAEKQLSHYLLTGKIKFDNPTIARYVWQSAFPVKYHFLSTDYFEKAEFLQPLKEYLAENYQKMDWTAYQQLTPEQQAFYLTLVGFNDEVKQSLEVQQAKFIFTGTTTWFGNTDVREYYAQQQLNLLNHFTQAEGDLFIGDHYKIYFKGHPYGGEINDYILNNAKNITNIPANISFEVLMMTGLLPDKVGGVASSLYFSLPKEKISHIIFTSNKQVKSKEDALNNPYVKVMRRLGIIDESQVIFWDSLKQL
modifications: PmST1 wild-type glycosyltransferase family 80 (GT80), GT80 sialyltransferase, Pm0188Ph
Consider B1, for which, in [9], the “decrease in sialidase kcat (turnover number) compared to wild-type PmST1” value was found to be 277 fold, the “decrease of α2-3-sialidase activity (catalytic efficiency kcat/Km) compared to wild-type PmST1” value was 6,333 fold and the “increase in sialidase Km value compared to wild-type PmST1” value is given as 22.5 fold. Besides, the “thermal stability of α2-3-sialyltransferase activity (FIG. 3, in words)” value in data set [10] is listed as “did not decrease their activities significantly”.

(Values after US9255257B2, “PmST1 mutants for chemoenzymatic synthesis of sialyl lewis X compounds” (THE REGENTS OF THE UNIVERSITY OF CALIFORNIA, priority 2011, dated 2016).)
